The target in one series is MAX (Homo sapiens, UniProt P61244 1-160). Description: EMSA; MAX/MAX homodimer, not displaced by SerRS; EMSA: 20 mM Tris-HCl pH 8.0, 60 mM KCl, 5 mM MgCl2, 0.1 mg/ml BSA, 10 ng/ul poly(dG-dC), 1 mM DTT, 30 min, room temperature; SPR: 10 mM HEPES pH 7.4, 150 mM NaCl, 0.005% P-20; footprint: 20 mM HEPES pH 7.9, 120 mM KCl, 8 mM MgCl2, 0.2 mM EDTA, 0.5 mM DTT, 0.2 mg/ml BSA, 10 ug/ml poly(dG-dC), 5% glycerol, room temperature. The following applies: protein: recombinant; tags: C-terminal His tag; chain copies: 2; label: 5' 32P. For orientation: Mobility shift assays separate free from complexed probe on a gel.
MAX, sequence (P61244 whole entry): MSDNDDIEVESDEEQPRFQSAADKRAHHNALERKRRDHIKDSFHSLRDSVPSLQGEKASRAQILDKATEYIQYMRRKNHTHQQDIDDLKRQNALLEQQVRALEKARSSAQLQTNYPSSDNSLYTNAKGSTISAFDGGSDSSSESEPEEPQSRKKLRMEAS

The next series addresses c-Myc;MAX (Homo sapiens;Homo sapiens, UniProt P01106;P61244 16-454;1-160, |). The series can be described thus: EMSA; competed off by SerRS at same concentrations; EMSA: 20 mM Tris-HCl pH 8.0, 60 mM KCl, 5 mM MgCl2, 0.1 mg/ml BSA, 10 ng/ul poly(dG-dC), 1 mM DTT, 30 min, room temperature; SPR: 10 mM HEPES pH 7.4, 150 mM NaCl, 0.005% P-20; footprint: 20 mM HEPES pH 7.9, 120 mM KCl, 8 mM MgCl2, 0.2 mM EDTA, 0.5 mM DTT, 0.2 mg/ml BSA, 10 ug/ml poly(dG-dC), 5% glycerol, room temperature. As to conditions: protein: recombinant;recombinant; tags: C-terminal His tag;C-terminal His tag; label: 5' 32P.

Series [1] concerns the target T1, SerRS (Homo sapiens, UniProt P49591 1-514). Description: EMSA; 5 mM Mg2+; EMSA: 20 mM Tris-HCl pH 8.0, 60 mM KCl, 5 mM MgCl2, 0.1 mg/ml BSA, 10 ng/ul poly(dG-dC), 1 mM DTT, 30 min, room temperature; SPR: 10 mM HEPES pH 7.4, 150 mM NaCl, 0.005% P-20; footprint: 20 mM HEPES pH 7.9, 120 mM KCl, 8 mM MgCl2, 0.2 mM EDTA, 0.5 mM DTT, 0.2 mg/ml BSA, 10 ug/ml poly(dG-dC), 5% glycerol, room temperature. The following applies: protein: recombinant; tags: C-terminal His tag (pET-20b); chain copies: 2; label: 5' 32P.

For series [2], the target named is T1, SerRS. Description: SPR; HBS-EP pH 7.4, 1:1 fit; EMSA: 20 mM Tris-HCl pH 8.0, 60 mM KCl, 5 mM MgCl2, 0.1 mg/ml BSA, 10 ng/ul poly(dG-dC), 1 mM DTT, 30 min, room temperature; SPR: 10 mM HEPES pH 7.4, 150 mM NaCl, 0.005% P-20; footprint: 20 mM HEPES pH 7.9, 120 mM KCl, 8 mM MgCl2, 0.2 mM EDTA, 0.5 mM DTT, 0.2 mg/ml BSA, 10 ug/ml poly(dG-dC), 5% glycerol, room temperature. The following applies: protein: recombinant; tags: C-terminal His tag (pET-20b); chain copies: 2; label: biotin; 3' overhang 3 nt on strand 1. (SPR reads the build-up and loss of mass on a sensor chip optically.)

The target of series [3] is T1, SerRS. The series can be described thus: EMSA; interaction not affected; EMSA: 20 mM Tris-HCl pH 8.0, 60 mM KCl, 5 mM MgCl2, 0.1 mg/ml BSA, 10 ng/ul poly(dG-dC), 1 mM DTT, 30 min, room temperature; SPR: 10 mM HEPES pH 7.4, 150 mM NaCl, 0.005% P-20; footprint: 20 mM HEPES pH 7.9, 120 mM KCl, 8 mM MgCl2, 0.2 mM EDTA, 0.5 mM DTT, 0.2 mg/ml BSA, 10 ug/ml poly(dG-dC), 5% glycerol, room temperature. As to conditions: protein: recombinant; tags: C-terminal His tag (pET-20b); chain copies: 2; label: 5' 32P.

The target of series [4] is T1, SerRS. The series can be described thus: EMSA; minimal binding site; EMSA: 20 mM Tris-HCl pH 8.0, 60 mM KCl, 5 mM MgCl2, 0.1 mg/ml BSA, 10 ng/ul poly(dG-dC), 1 mM DTT, 30 min, room temperature; SPR: 10 mM HEPES pH 7.4, 150 mM NaCl, 0.005% P-20; footprint: 20 mM HEPES pH 7.9, 120 mM KCl, 8 mM MgCl2, 0.2 mM EDTA, 0.5 mM DTT, 0.2 mg/ml BSA, 10 ug/ml poly(dG-dC), 5% glycerol, room temperature. The following applies: protein: recombinant; tags: C-terminal His tag (pET-20b); chain copies: 2; label: 5' 32P.

One may read the Kd as a measure of binding affinity in units of concentration.

T1 sequence (P49591 whole entry): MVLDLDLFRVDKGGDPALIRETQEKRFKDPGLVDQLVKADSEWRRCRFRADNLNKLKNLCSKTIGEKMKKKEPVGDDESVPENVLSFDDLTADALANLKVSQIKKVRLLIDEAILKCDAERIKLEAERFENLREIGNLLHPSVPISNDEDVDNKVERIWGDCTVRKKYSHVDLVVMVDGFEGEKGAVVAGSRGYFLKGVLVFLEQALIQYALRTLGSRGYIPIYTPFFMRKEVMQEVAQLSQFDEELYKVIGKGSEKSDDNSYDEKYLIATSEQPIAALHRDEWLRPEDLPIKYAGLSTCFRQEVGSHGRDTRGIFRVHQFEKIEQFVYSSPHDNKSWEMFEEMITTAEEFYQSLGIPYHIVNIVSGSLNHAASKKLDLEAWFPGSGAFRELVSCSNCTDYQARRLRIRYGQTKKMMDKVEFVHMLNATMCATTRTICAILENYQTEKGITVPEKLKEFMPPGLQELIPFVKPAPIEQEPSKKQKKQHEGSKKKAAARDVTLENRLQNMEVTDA
c-Myc;MAX, sequence (P01106 16-454, chain 1 of 2): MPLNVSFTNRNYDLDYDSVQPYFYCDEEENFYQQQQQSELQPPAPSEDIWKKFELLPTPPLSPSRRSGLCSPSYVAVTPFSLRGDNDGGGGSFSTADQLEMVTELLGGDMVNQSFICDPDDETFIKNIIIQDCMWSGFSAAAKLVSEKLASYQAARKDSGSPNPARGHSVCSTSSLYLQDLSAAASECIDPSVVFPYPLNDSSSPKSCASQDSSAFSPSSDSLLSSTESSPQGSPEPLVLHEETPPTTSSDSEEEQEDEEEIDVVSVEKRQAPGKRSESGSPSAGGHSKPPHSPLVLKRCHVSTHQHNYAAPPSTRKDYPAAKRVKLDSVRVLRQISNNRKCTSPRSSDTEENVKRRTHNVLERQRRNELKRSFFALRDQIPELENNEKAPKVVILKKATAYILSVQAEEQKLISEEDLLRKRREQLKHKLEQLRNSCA
c-Myc;MAX, sequence (P61244 whole entry, chain 2 of 2): as the sequence (P61244 whole entry) above

B1: VEGFA promoter 27-bp (-62 to -36) (dsDNA)
DNA 1: GGCGGGGCGGAGCCATGCGCCCCCCCC
DNA 2: GGGGGGGGCGCATGGCTCCGCCCCGCC
For B1, the binding result with MAX and with c-Myc;MAX was “binds” each time. The Kd with SerRS [1] was 212 nM.

B2: VEGFA promoter SPR duplex (dsDNA)
DNA 1: GGCGGGGCGGAGCCATGCGCCCCCCCCTTTATA
DNA 2: AAAGGGGGGGGCGCATGGCTCCGCCCCGCC
modifications: 3' biotin on strand 1
Consider B2, for which the Kd with SerRS [2] is 265 nM.

B3: 27-bp E-box double mutant CTTACG (dsDNA)
DNA 1: GGCGGGGCGGAGCCTTACGCCCCCCCC
DNA 2: GGGGGGGGCGTAAGGCTCCGCCCCGCC
Take B3: in the series with SerRS [3], the binding result is on record as “binds”.

B4: VEGFA minimal SerRS site (-59 to -38) (dsDNA)
DNA 1: GGGCGGAGCCATGCGCCCCCCC
DNA 2: GGGGGGGCGCATGGCTCCGCCC
Take B4: the binding result with SerRS [4] is recorded as “binds”.

Source of the values: paper PMC4057782, “tRNA synthetase counteracts c-Myc to develop functional vasculature”.
